Consider three substances from patent US20050032185.

Series [1] relates to GST-PKBα (full length human protein kinase Bα with N-terminal glutathione S-transferase, from unstimulated 293 cells) [GST: P08515].
Series [2] concerns the target HA-PKBα (haemagglutinin epitope-tagged human PKBα expressed in 293 cells) (UniProt P31749).
Series [3] concerns the target GST-ΔPH-PKBα (residues 118-479 of human PKBα, lacking the PH domain) (UniProt P31749).

Sequence of GST-PKBα (full length human protein kinase Bα with N-terminal glutathione S-transferase, from unstimulated 293 cells) [GST: P08515] (P08515 whole entry, looked up): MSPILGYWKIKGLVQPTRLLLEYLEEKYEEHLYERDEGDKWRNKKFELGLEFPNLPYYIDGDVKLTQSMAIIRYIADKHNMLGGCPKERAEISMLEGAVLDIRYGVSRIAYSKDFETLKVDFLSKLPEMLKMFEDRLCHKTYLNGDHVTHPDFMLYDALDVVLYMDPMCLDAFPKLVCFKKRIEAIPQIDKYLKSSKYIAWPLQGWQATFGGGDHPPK
Sequence of GST-ΔPH-PKBα (residues 118-479 of human PKBα, lacking the PH domain) (P31749 whole entry, looked up, stated change not applied, the tested form may be a part): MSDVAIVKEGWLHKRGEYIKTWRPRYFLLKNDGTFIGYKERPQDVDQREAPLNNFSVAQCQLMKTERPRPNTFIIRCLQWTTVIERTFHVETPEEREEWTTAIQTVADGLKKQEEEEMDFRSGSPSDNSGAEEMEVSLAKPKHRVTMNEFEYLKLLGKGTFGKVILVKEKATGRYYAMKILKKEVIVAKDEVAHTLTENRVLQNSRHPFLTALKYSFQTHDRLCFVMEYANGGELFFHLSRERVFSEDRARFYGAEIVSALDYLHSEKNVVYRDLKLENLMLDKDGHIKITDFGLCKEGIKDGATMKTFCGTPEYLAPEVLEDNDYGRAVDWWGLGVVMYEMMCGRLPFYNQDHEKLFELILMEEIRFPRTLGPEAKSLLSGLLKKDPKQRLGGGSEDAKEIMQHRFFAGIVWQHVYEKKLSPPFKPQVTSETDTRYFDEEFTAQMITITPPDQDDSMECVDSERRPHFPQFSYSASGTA
Sequence of HA-PKBα (haemagglutinin epitope-tagged human PKBα expressed in 293 cells) (P31749 whole entry, looked up, the tested form may be a part): as the sequence (P31749 whole entry, looked up, stated change not applied, the tested form may be a part) above

“GST-D223A-PDK1 (full length catalytically inactive human PDK1, Asp223 changed to Ala)”: in series [1], the “phosphorylation and activation of GST-PKBα” value was “did not phosphorylate or active GST-PKBα in the presence of PtdCho/PtdSer lipid vesicles containing PtdIns(3,4,5)P3 (data not shown)”.
For “GST-ΔPH-PDK1 (residues 1-450 of human PDK1, lacking the putative C-terminal PH domain)”, in series [1], the “rate of activation of GST-PKBα by GST-ΔPH-PDK1 compared to full length wild-type GST-PDK1” value is recorded as “the rate of activation was reduced about 30-fold compared to full length wild-type GST-PDK1”.
With “PtdIns(3,4,5)P3-dependent protein kinase-1 (PDK1) purified from rabbit skeletal muscle”, in series [2], the “phosphorylation of immunoprecipitated HA-PKB by PDK1” value is on record as “immunoprecipitated HA-PKB was not phosphorylated effectively by PDK1”. The “activation and phosphorylation of GST-ΔPH-PKBα” value in series [3] is “also activated and phosphorylated GST-ΔPH-PKBα in a PtdIns(3,4,5)P3 independent manner (data not shown)”. Moreover, in series [1], the “fold increase in GST-PKBα activity with sn-1,2-dilinoleoyl D-PtdIns(3,4,5)P3” value is “causing a 36-fold increase in GST-PKBα activity”, the “fold increase in GST-PKBα activity with sn-1,2-dipalmitoyl PtdIns(3,4)P2 (lipid 7)” value is listed as “both inositol phospholipids increasing GST-PKBα activity about 6-fold”, the “fold increase in GST-PKBα activity with sn-1,2-dipalmitoyl PtdIns(3,4,5)P3 (lipid 6)” value was “both inositol phospholipids increasing GST-PKBα activity about 6-fold” and the “increase in GST-PKBα activity” value is on record as “a >30-fold increase in activity”. Moreover, in series [1], the “phosphorylation of GST-PKBα (mol 32P per mol protein)” value was “to a level approaching 0.7 moles of 32 P/mol protein”, the “phosphorylation of GST-PKBα (mol/mol) in the sample used for site mapping” value is “phosphorylated to 0.4-0.6 mol/mol with PDK1”, the “specific activity of GST-PKBα reached after phosphorylation by PDK1” value is given as “reached a specific activity of 80 U/mg” and the specific activity of PDK1 after Mono S (units of GST-PKBα activation per mg) came to 69500 U/mg. Further, the “specific activity towards GST-PKBα in the presence of PtdIns(3,4,5)P3” value in series [1] is listed as “PDK1 purified from rabbit skeletal muscle (100 000 U/mg)”.
